Experimental findings from the Immune Epitope Database (IEDB) are described below.

Where only a bound is given, the exact number is not on record here.

Assay [1] deals with HLA-B*15:42. Kind of assay: IEDB peptide-MHC binding, purified MHC/competitive/fluorescence; filed as Kd, often an IC50 or EC50 that approximates it; ≥ and ≤ were set here for values at or beyond the usual limits of such assays. The settings on record: source organism: human gammaherpesvirus 4.
In assay [2] the target is HLA-B*40:13. The description is as above. The note with it: source organism: human gammaherpesvirus 4.
For assay [3], the target named is HLA-B*27:20. Described as above. The note with it: source organism: human gammaherpesvirus 4.
The target in assay [4] is HLA-B*83:01. The description is as above. The settings on record: source organism: human gammaherpesvirus 4.
The target in assay [5] is HLA-B*45:06. The description is as above. The settings on record: source organism: human gammaherpesvirus 4.
Assay [6] addresses HLA-A*26:02. The assay is described as above. The note with it: source organism: Influenza A virus (A/swine/Italy/1509-6/97(H1N1)).
For assay [7], the target named is HLA-A*26:03. The assay is described as above. The note with it: source organism: Influenza A virus (A/swine/Italy/1509-6/97(H1N1)).
Assay [8] deals with HLA-B*08:01. The description is as above. The settings on record: source organism: Influenza A virus (A/swine/Italy/1509-6/97(H1N1)).
In assay [9] the target is HLA-B*39:01. The assay is described as above. The note with it: source organism: Influenza A virus (A/swine/Italy/1509-6/97(H1N1)).
Assay [10] has as its target HLA-B*15:09. Described as above. The note with it: source organism: Influenza A virus (A/swine/Italy/1509-6/97(H1N1)).
The target of assay [11] is HLA-A*68:02. The assay is described as above. The settings on record: source organism: Influenza A virus (A/swine/Italy/1509-6/97(H1N1)).
For assay [12], the target named is HLA-B*57:01. Kind of assay: IEDB peptide-MHC binding, purified MHC/direct/fluorescence; filed as Kd, often an IC50 or EC50 that approximates it; ≥ and ≤ were set here for values at or beyond the usual limits of such assays. The note with it: source organism: Influenza A virus (A/New Caledonia/20/1999(H1N1)).
For assay [13], the target named is HLA-C*15:02. The assay is described as above. The settings on record: source organism: Influenza A virus (A/swine/Italy/1509-6/97(H1N1)).
The target in assay [14] is HLA-B*46:01. The description is as above. The settings on record: source organism: Influenza A virus (A/New Caledonia/20/1999(H1N1)).
Assay [15] deals with HLA-B*08:03. The description is as above. The note with it: source organism: Influenza A virus(A/swine/Henan/8/2004(H9N2)).
The target of assay [16] is HLA-B*15:17. The assay is described as above. The note with it: source organism: Influenza A virus (A/New Caledonia/20/1999(H1N1)).
The target of assay [17] is HLA-C*14:02. The assay is described as above. The settings on record: source organism: Influenza A virus (A/swine/Italy/1509-6/97(H1N1)).
Assay [18] addresses HLA-A*01:01. The assay is described as above. The note with it: source organism: Influenza A virus (A/New Caledonia/20/1999(H1N1)).
Assay [19] has as its target HLA-C*06:02. The assay is described as above. The settings on record: source organism: Influenza A virus (A/swine/Italy/1509-6/97(H1N1)).
In assay [20] the target is HLA-A*11:01. The description is as above. The note with it: source organism: Influenza A virus (A/New Caledonia/20/1999(H1N1)).
The target in assay [21] is HLA-B*15:01. The assay is described as above. The settings on record: source organism: Influenza A virus (A/New Caledonia/20/1999(H1N1)).
The target in assay [22] is HLA-B*27:05. The assay is described as above. The settings on record: source organism: Influenza A virus (A/New Caledonia/20/1999(H1N1)).
Assay [23] deals with HLA-B*48:01. The description is as above. The note with it: source organism: Influenza A virus (A/New Caledonia/20/1999(H1N1)).
The target in assay [24] is HLA-B*58:01. Described as above. The settings on record: source organism: Influenza A virus (A/New Caledonia/20/1999(H1N1)).
Assay [25] concerns the target HLA-A*03:01. The description is as above. The settings on record: source organism: Influenza A virus (A/New Caledonia/20/1999(H1N1)).
The target of assay [26] is HLA-A*02:11. The description is as above. The settings on record: source organism: Influenza A virus(A/swine/Henan/8/2004(H9N2)).
Assay [27] addresses HLA-B*07:02. The description is as above. The settings on record: source organism: Influenza A virus (A/New Caledonia/20/1999(H1N1)).
The target in assay [28] is HLA-A*31:01. Described as above. The settings on record: source organism: Influenza A virus (A/New Caledonia/20/1999(H1N1)).
In assay [29] the target is HLA-B*15:02. Described as above. The settings on record: source organism: Influenza A virus(A/swine/Henan/8/2004(H9N2)).
The target of assay [30] is HLA-A*69:01. Described as above. The settings on record: source organism: Influenza A virus (A/New Caledonia/20/1999(H1N1)).
Assay [31] has as its target HLA-A*02:01. The description is as above. The note with it: source organism: Influenza A virus (A/New Caledonia/20/1999(H1N1)).

In general, Kd refers to the equilibrium constant for the complex coming apart. High values mean lower affinity, low ones higher affinity. AQRAAGPSV: the equilibrium dissociation constant (Kd) in assay [1] is 1190 nM; in assay [2] it was 212 nM; in assay [3] it was 0.7 nM; in [4], not below 5 µM; in assay [5], 9.2 nM.

Regarding WMACHSAAF, the Kd in [6] amounted to 0.4 nM; in [7], 158 nM; in assay [8] it was 77.2 nM; in [9] it was 59.5 nM; in assay [10], 600 nM; in assay [11], 929 nM. Further, the Kd was not below 20 µM in [12]; not below 20 µM in assay [13]; 756 nM in assay [14]; 83 nM in [15]; 189 nM in assay [16]; 43 nM in assay [17]. Further, the Kd in [18] was not below 20 µM; in [19], not below 20 µM; in assay [20], not below 20 µM; in assay [21], 18 nM; in assay [22], 6.3 µM; in [23] it was 1430 nM. For the same sequence, the Kd in assay [24] was not below 20 µM; in [25] it was not below 20 µM; in [26] it was 60 nM; in assay [27], 9.8 µM; in assay [28], not below 20 µM; in [29] it was 5 nM. Moreover, the Kd in assay [30] and in assay [31] was not below 20 µM each time.
